Test results published in patent US20240189443A1, “PD-L1 AND TLR7 DOUBLE-TARGETING NANOBODY COUPLING DRUG AND USE THEREOF IN ANTI-TUMOR” (SHANGHAI INSTITUTE OF MATERIA MEDICA, CHINESE ACADEMY OF …, priority 2021, published 2024).
Values joined by “and” are separate entries in the source; they are usually repeats but may differ in a detail not shown here. Equal values may be shown once.

Experiments:
induced CT26 = assay: Induced (high expression) PD-L1 CT26 subcutaneous tumor-bearing model; type: in vivo, BALB/c mouse; details: 10 mg/kg intraperitoneal, 4 doses
Text: In FIG. 8A, it has been shown that the non-induced CT26 cell surface PD-L1 expression is approximately 17.3%, and the expression level of PD-L1 is increased to 98.1% only after IFN-γ induction. Therefore, we researched and compared the effects of the coupling compound in the non-induced and induced CT26 mouse tumor model, respectively.
In the two models, CT26 tumor cells were subcutaneously inoculated into female BALB/c mice before and after induction respectively to construct tumor-bearing mouse models, and the inoculation amount was 1×10^6 cells/one; the mice are randomly divided into two groupswith 6 mice of each group, that is, a blank control group mFc (the concentration is 10 mg/kg), and a coupling compound Nb16-SZU-101 group (the concentration was 10 mg/kg); the administration dosage was 200 μl, and the administration modes were both intraperitoneal administration; administration was performed on Day 2, Day 5, Day 8 and Day 11 respectively, and administration was carried out for 4 times; the size of the tumor was measured for 2-3 times every week, and a tumor growth curve was drawn; and anatomical weighing and photographing were performed on the mouse at Day 12.

B16-F10 cells = assay: Uninduced B16-F10 subcutaneous tumor-bearing model with low expression PD-L1; type: in vivo, C57BL/6 mouse; details: 10 mg/kg intraperitoneal
Procedure: The 6 to 8-week-old C57BL 6 mice were randomly divided into two groups, which were respectively as an mFc group and a nanobody-coupled drug NB 16-SZU-101 group. 1×10^6 B16-F10 cells (FIG. 9A) of 1×10^6 non-induced low-expression PD-L1 were planted under the underarm skin of mice (FIG. 9A). Administration was performed by using mFc and nanobody coupled drug Nb16-SZU-101, respectively; the administration dosage of the control drug and Nb16-SZU-101 was 10 mg/kg, and the volume is 200 μL; each group of drug delivery manners was intraperitoneal injection. Each group was administered at 2th, 5th, 8th and 11th days after tumor implantation, respectively, and the drug was administered for […]. On Day 12 mice would be euthanized.

HEK293T/mPD-L1 = target: T1, HEK293T/mPD-L1 (Mus musculus, UniProt Q9EP73); assay: Flow cytometry PD-L1 binding activity assay of the nanobody coupling drug; details: 17 concentrations 100-0.0008 μg/mL
T1 construct: expressed in transfected cells; host or cells: HEK293T

[1] = test system: IFN-γ-induced high-expression PD-L1 CT26; assay: IFN-γ-induced high-expression PD-L1 CT26 subcutaneous tumor-bearing model, conjugate vs combined administration; type: in vivo, BALB/c mouse; details: Nb16 or Nb16-SZU-101 10 mg/kg, SZU-101 0.5 mg/kg, intraperitoneal
Procedure: In an IFN-γ-induced high-expression PD-L1 CT26 subcutaneous tumor-bearing BALB/c mouse model, mice were randomly divided into four groups, namely an mFc group, an Nb16 group, an Nb16/SZU-101 combined administration group and an NB16-SZU-101 nanobody conjugate drug group, wherein the administration dosage of the mFc or Nb 16 or Nb16-SZU-101 was 10 mg/kg, the administration mode was intraperitoneal administration, the administration dosage of the SZU-101 was 0.5 mg/kg, and the administration mode was intraperitoneal administration; the drug was administered on Day 2, Day 6, Day 10 and Day 13 for a total of 4 times. Tumor sizes were measured 2-3 times per week, and tumor growth curves were drawn; and anatomical weighing and photographing were performed on mice at Day 14.

T1 sequence (Q9EP73 19-290): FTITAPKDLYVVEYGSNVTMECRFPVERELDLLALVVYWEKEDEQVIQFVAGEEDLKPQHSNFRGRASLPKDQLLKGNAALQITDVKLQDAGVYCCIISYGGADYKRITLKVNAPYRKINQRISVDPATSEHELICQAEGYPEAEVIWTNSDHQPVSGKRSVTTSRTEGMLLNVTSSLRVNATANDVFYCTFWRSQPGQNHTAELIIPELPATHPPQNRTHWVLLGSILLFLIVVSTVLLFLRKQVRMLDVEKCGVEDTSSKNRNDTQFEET

B1: Nb16-SZU-101: PD-L1 and TLR7 dual-targeting nanobody coupling drug, Nb16 coupled with SZU-101-NHS active ester (conjugate)
chain: QVQLQESGGGSVQAGGSLRLSCAASGYTDRNYWMGWFRQAPGKEREGVAALYTRTGSTYYADSVKGRFTISHDNAKNTLYLQMNSLKPEDTAVYYCAADSNAYGLAPLHHYWGQGTQVTVSS
modifications: left off: a dimerising Fc or GST
- Tumor growth inhibition rate (induced CT26): 83.6%
- Tumor inhibition rate (B16-F10 cells): about 68.2%
- PD-L1 binding activity of conjugate compared with Nb16 (HEK293T/mPD-L1): does not change the binding activity
- Tumor inhibitory rate ([1]; Day 14, 4 doses): 81%
- Anti-tumor effect [1]: significantly improved anti-tumor effect
- Endpoint tumor Weight ([1]; individual mice, Day 14, 4 doses): 0.191 g and 0.146 g and 0.155 g and 0.084 g and 0.012 g and 0.087 g
